# Values quoted from earlier work, collected in doi:10.1101/2022.02.18.481064.
# Target: Cys106 (UniProt position 106, LIAAICAGPTA)
# Conditions: Reduced Cys106 thiol/thiolate is implied. The state is otherwise not stated.
substance,measurement,value
"DJ-1 (Parkinson disease protein 7, PARK7) (Homo sapiens)",pKa,5.4
